Measured values published in the nanobody polyreactivity screen of Harvey et al. (2022).

Test: yeast display, Sf9 membrane polyspecificity reagent, FACS + sequencing; frameworks hold sequencing errors
Summary of the method: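 Sorting gates, low and high (top ~1%), were placed on anti-HA fluorescence to track expression and on streptavidin fluorescence to track reagent binding. A clone's polyreactivity label is taken from the gate it came out of. The reagent was 10% biotinylated, detergent-solubilized Sf9 membrane, applied for 1 hour at 4 °C to galactose-induced yeast display cells.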

| Sequence | polyreactivity (PSR sort gate) |
| --- | --- |
| QVQLVESGGGLVQAGGSLRLSCAAYGINFYKYAMVWSRQAPGQERELVASITKSAGSTNYADSDKGRFTISRDNAMNTVYLQMNSLKPEDTAVYYCAARRFTFNLFDYWGQGTQVTVSS | high polyreactivity |
| QVQLVESGGGLVQAGGSLRLSCAASGSIFSYYAMGWYRQATGKERELVAAITRGGTTYYAVCVKGRFTISRDNAKNTVYLQMNSLKPDDTAVYYCAVYYYSGTAGYRYGYWGQGTQVTVSS | high polyreactivity |
| QVQLVESGGGLVQAGGSLRLSCVASGGIFFHYAMRWYRHARGKERELVAAISISGGSTYSADSVKGRFTISRDNAKNTVYLQMNSLKPEDTAVYYCAARYWVRRKDYWGQGTQVTVSS | low polyreactivity |
| QVQLVESGGGLVQAGGSLRLSCAASGSTFTNYAMGWYRQAPGKERELVAAINSGGSTHYADSVKGRFTISRDNAKNTVYLQMNSLKPEDTAVYYCAADPSALVYYWRWLGYDYWGQGTQVTVSS | high polyreactivity |
| QVQLVESGGGLVQAGGSLRLSCAASGRIFPFYAMGWYRQAPGKERELVAAITQSGGSTYYADSVKGRFTISRDNAKNTVYLQMNSLKPEDTAVYYCAADYGSFLYGYPTYDYWGQGTQVTVSS | low polyreactivity |
| QVQLVESGGGLVKAGGSLRLSCAASGSTFQWYAMGWYRQAPGKERELVAAINKSGGTTYYADSVKGRFTISRDNAKNSVYLQMNSLKPEDTAVYYCATDNPVVYQPGNMDYWGQGTQVTVSS | low polyreactivity |
| QFQLVESGGGLVQAGGSLRLSCAASVLTFSAYAMGWYRQAPGKEREFVAAITDSDGSTYYADYVKGRFTISRDNEKNTVYLQMNSLKPEDTAVYYCAASGSWYYGYWSGGYDYWGQGTQVTVSS | low polyreactivity |
| QVQLVESGGGLVQAGGSLRLRCAASGYIFGAYALGWYRQAPGKERELVAAIHVGDASAYYADSVKGRFTISRDNAKKTVYLQMNSLKPEDTAVYYCAKDRGSWEWYTVDYWGQGTQVTVSS | low polyreactivity |
| QVQLVESGGGLVQAGGSLRLSCAASGYTFYRYAMGWYRQAPGKERELVATISRGGSTDYADSVKGRFTISRDNAKNTVYLQMNSLKPEDTAVYYCAARAFSRLTTFYYWGQGTQVTVSS | high polyreactivity |
| QVQLVESGGGLVQAGGSLRLSCAASGFTFTWYAMGWYRQAPGKERELVAAISSGGGRTYYADSVKGRFTISRDNAKNTVYLQMNSLKPEDTAVYYCNAVAGGVYVDNGYDYWGQGTQVTVSS | high polyreactivity |
| QVQLVESVGGLVQAGGSLRLSCAASGLIFLVNAMGWYRQAPGKERELVAAIDRDGGITYADSVKGRFTISRDNAKNTVYLQLNSLKPEDTAVYYCAADPSSYGRFTYDYWGQGTQVTVSS | low polyreactivity |
| QVQLVASGGGLVQAGGSLLLSCAASGRIFAEYAMGWSRQAPGKERELVAVIDGTGGSTYYADSVKGRFTISRDNEKNTVYLLMNSLNPEDTAVYYCAATGRGSGRRFNYWGQGTQVTVSS | high polyreactivity |
| QVQLVESGGGLVQAGGSLRLSCAASGRTFFYAMGWYRQAPGKEREFVAAISWSGGSTYYADSVKGRFTISRDNAKNTVYLQMNSLKPEDTAVYYCYKVGYYGVGTSKEFDYWGQGTQVTVSS | high polyreactivity |
| QVQLVESGGGLVQAGGSLRLSCAASGSTFRDNSMGWYRQAPGKERELVASITKRGTSTYYADSVKGRFTISRDNAKNNVYLHMNSLKPEETSVYYCAVRRYGKTAGYDYWGQGTQVTVSS | low polyreactivity |
| QVQLVESGGGLVQAGGSLRLSCAASGIIIGNNAMGWYRQAPGKERELVAPISRRGGSTYYADSVKGRFTISRDNAKNTVYLQMNSLKPEYTAVYYCAADIYRYNSYDYWGQGTQVTVSS | low polyreactivity |
| QVQLVESGGGLVQAGGSLRLSCAASGRTFYIYALGWYRQAPGKERELVAAISWGSGSTYYADSVKGRFTISRDNAKNTVYLQMNSLKPEDTAVYYCAAEYAYPSEWTYDYWGQGTQVTVSS | low polyreactivity |
| QVQLVESGGGLVQAGGSLRLSCAASGSTFTAYAMGWYRQAPGKERELVAAISKRSGGTYYADSVKGRFTISRDNAKNTVYLQMNSLKPEDTAVYYCGQGTQVTVSS | low polyreactivity |
| QVQLVESGGGLVQAGGSLRLSCAASGFIFFQYAMGWYRPAPGKERELVAAISGSGVTTYYADSVKGRFTISRDNAKNTVYLQMNSLKPDDTAVYYCNAGSVSDRQMDYWGQGTQVTVSS | low polyreactivity |
| QVQLVESGGGLVQAGGSLRLSCAASGSILYYYTMGWYRQAPGQDRELVAAITSSGGSTYYADSVKGRFTISRDNATKTVYLQMNSLKPEDTAVDYCNVDSGRSYRVARYDYWGQGTQVTVSS | low polyreactivity |
| QVQLVESGVGLVQAGGSLRLSCASSGRILTYYAMGWYRQAPGKERELVASISSNGGTYYADSVKGRFTISRDNAKNTVYLQMNSLKPEDTAVYYCNAKRVARYQYGASYNYWGQGTQVTVSS | high polyreactivity |
| QVQLVESGGGLVQAGGSLRLSCAASGSIIQQYDKGWYRQAPGKHREFVAANSSSGGSTYYADSVKGRFTISRDNAKNTVYLQMNSLKPEDTAVYYCAVDTKGYTYVDYLHGSGEFGYWGQGTQVTVSS | low polyreactivity |
| QVQLVESGGGLVQAGGSLRLSCAASGFILEDYTMGWYRQAPGKERELVAAISSGGTRTYYADSVKGRFTISRDNAKNTVYLQMNSLKPEDTAVYYCTTRRGERGYWGQGTQVTVSS | high polyreactivity |

| Sequence | polyreactivity (PSR sort gate) |
| --- | --- |
| QVQLVESGGGLVQAGGSLRLSSAASGRIFPYYAMGWYRQAPGKETELVATISSGGRTNYADSVKGRFTISRDNAKYTVYLQMNSLKPEDTAVYYCAADYRKSRVFYGLYYWGQGTQVTVSS | high polyreactivity |
| QVQLVESGGGLVQAGGSLRLSCAASGSIFQPYAMGWYRQAPGKERELVAAISSSGGSTTYADSVKGRFTISRDNAKNTVYLQMNSLKPEDTAVYYCAADVEYKVFPGDYWGQGTQVTVSS | low polyreactivity |
| QVQLVESGGGLVQAGGSLRLSCAASGRIFWYYDMGWYRPAPGKERELVAAISQRGGSTYYADSVKGRFTISRDNAKNTVYLQMNSLKPEDTAVYYCAAYSRYLGPTHHIKYDYWGQGTQVTVSS | high polyreactivity |
| QVQLVESGGGLVQAGGSLRLSCAASGRTFKIYAMGWYRQAPGKERELVAAISRGGRTYYADSVKGRFTISRDNAKNTVYLQMNSLKPEDTAVYYCAADLLISPEFYYWGQGTQVTVSS | high polyreactivity |
| QVQLEESGGGIVQAGGSLRLSCAASGSIFGGYAMGWYRQAPGKEREFFAAISWTSGRTTYADSVKGRFTISRDYAKNTVYLQMNSLKPEDTAVYNCAKRYGIWYPSYADRGSDYRYGYWGQGTQVTVSS | high polyreactivity |
| QVQLVESGGGLVQAGGSLRLSCAASGGTFPAYAMGWYRQAPGKERELVASISDDDSTYYADSVKGRFTISRDNAKNTVYLQMNSLKPEDTAVYYCNVEYWYYPSVEYYWTAYDYWGQGTQVTVSS | low polyreactivity |
| QVHLVESGGGLVQAGGSLRLSCAASGIIFYYYTMGWYRQPPGKERELVASISRDGGSTHYADSVKGRFTISRDNAKNTVYLQMNSLKPEDTAVYYCAARYPTGSSYAFYRRKVYYWGQGTQVTVSS | high polyreactivity |
| QVQLAESGGGLVQAGGSLRLSCAASGFILHHYTMGWYRQAPGKERELVAAISRSGGSTYYADSVKGRFTISRDNAKNTVYLQMNSLKPEDTAVYYCAKRVSTYGFSGYDYWGQGSQVTVSS | high polyreactivity |
| QVQLVESGGGLVQAGGSLRLSCAASGSILNNYAMGWYRQAPGKERELVAAISSSGGTNYADSVKGRFTISRDNAKNTVYLPMNSLKPVDTAVYYCNADVLDGGYDYWGQGTQVTVSS | low polyreactivity |
| QVQLVESGGGLVQAGGSLRLSCAASGFTFNYYAMGWYRQAPGKERELVAAISGRGGSTYYADSVKGRFTISRDNAKNTVYLQMNSLIPEDTAVYYCAADYWYDYYSTEYDYWGQGTQVTVSS | low polyreactivity |
| QVQLQESGGGLMQAGGSQRLSCAASGSISYYSDMCWYRQAPGKEREFVAGIGYGTTTNYADSVKGRFTTSRDNAKNTVYLQMISMKPEDTAVYYCAAYQGNGYEFYYWGQGTQVTVRS | low polyreactivity |
| QVQLVESGGGLVQAGGSLRLSCAASGITFNSYTMGWYRQAPGKERELVAAISDNGGRTFYADSVKGRFTISRDNAKNTVYLQMNSLKPEDTAVYYCAAVVYSEYYYWGQGTQVTVSS | low polyreactivity |
| QVQLVESAGGLVQAGGSLRLSCAASGSTFQSYAMGWYRQAPGKDRELVAAISSGGITYYADSVKGRFTISRDNAKNTVYLQMTSLIPEDTAVYYCAKVPTYLIYNRYSRYDYWGQGTQVTVSS | low polyreactivity |
| QVQLVESGGGLVQAGGSLRVSCAASVRTLFGNALGWYRQAPGKERELLAAISFSGGRTEYADSVKGRFTISRDNAMNTVYLQMNSLKPEDTAVYYCAARTYSAPRNRYYYWGQGTQVTVSS | high polyreactivity |
| QVQLVESGGGLVQAGGSLRLSCAASGFIFVYNDMGWYRQAPGKERELVAAISTSGGSTYYADSVKGRFTISRDNAKNTVYLQMNSLKPEDTAVYYCAAGPSYYPFFWPDFEYWGQGTQVTVSS | high polyreactivity |
| QVLLQESGGGLVQAGGSLRLSCAASGSIFLFYTMGWYRQAPVKEREFVAGITLGTTTYNADSVKGRFTISRDNVKNTVYLQMNSLKPEDTAVYYFAVAVGHYTEFWYWGQGTQVTMSS | high polyreactivity |
| QVQLVESGVGLVQAGGSLRLSCAASGFTFNYNAMGWYRQAPGKERELVADISRSGGSTYYADSVKGRFTISRDNAKNTVYLQMNSLKPEDTPVYYCAAVRAIGKYGYWGHGTQVTVSS | high polyreactivity |
| QVQLVESGGGLVQAGGSLRLSCAASGFTFETNAMGWYRQAHGKERELVATITGGGSTNYADSVKGRFTISRDNAKNTVYLQMNSLKPEDTAVYYCNAVHEASYAGVDYWGQGTQVTVSS | low polyreactivity |
| QVQLVETGGGLVQAGGSLRLSCAASGRTFDGNVMGWYRQEPGKERELGAAISDRGTRTYYADSVKGRFTISRDNAKNTVYLQMNSLKPEDTAVYYCATRVYFSPYRYDYWGQGTQGTVSS | high polyreactivity |
| QVQLVESGGGLVQAGGSLRLSCAASGRIFVYNTMGWYRQAPGKERELVAVISIGGSTKYADSVKGRFTISRDNAKNTVYLQMNSLKPEDTAVYYCNTDLAGLVYIAVDYWGQGTQVTVSS | low polyreactivity |
| QVQLVESGGGLVQAGGSLRLSCAASGRTFSYNAMGWYRQAPGTERELVAAISGGGSTDYADSVKGRFTISRDNAKNTVYLQMNSLKPEDTAVYYCAAGWYVYTFFEFYVFDGDYWGQGTQVTVSS | low polyreactivity |
